Laboratory results reported in patent publication US6413759.

Legend:
[1] = target: T1, SKC-2-N13 (SKC-2 with deletion of the first 13 N-terminal residues)
T1 chain: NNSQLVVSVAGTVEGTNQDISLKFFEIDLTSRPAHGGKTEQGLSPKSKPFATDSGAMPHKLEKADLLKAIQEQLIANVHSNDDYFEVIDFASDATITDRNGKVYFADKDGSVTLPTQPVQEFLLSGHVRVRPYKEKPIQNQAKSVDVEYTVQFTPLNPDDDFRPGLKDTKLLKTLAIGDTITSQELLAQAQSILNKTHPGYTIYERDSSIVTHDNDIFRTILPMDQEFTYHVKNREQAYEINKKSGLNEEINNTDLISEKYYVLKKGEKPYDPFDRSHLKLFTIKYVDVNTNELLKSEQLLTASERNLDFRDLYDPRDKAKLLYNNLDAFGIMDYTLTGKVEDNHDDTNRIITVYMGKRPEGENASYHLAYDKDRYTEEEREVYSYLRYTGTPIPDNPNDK

[2] = target: T2, SKC-2-C42 (SKC-2 with deletion of the last 42 residues, 373-414)
T2 chain: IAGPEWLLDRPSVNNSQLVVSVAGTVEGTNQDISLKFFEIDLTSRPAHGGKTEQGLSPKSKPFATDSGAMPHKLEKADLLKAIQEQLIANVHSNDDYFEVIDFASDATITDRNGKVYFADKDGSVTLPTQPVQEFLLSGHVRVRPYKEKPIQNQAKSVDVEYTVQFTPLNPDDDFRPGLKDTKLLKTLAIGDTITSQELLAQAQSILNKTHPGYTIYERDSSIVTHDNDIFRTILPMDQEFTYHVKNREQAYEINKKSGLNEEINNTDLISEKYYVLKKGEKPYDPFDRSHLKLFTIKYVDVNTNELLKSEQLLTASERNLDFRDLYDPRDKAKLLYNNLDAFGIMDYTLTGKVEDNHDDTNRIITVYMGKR

B1: human plasminogen (protein)
chain: EPLDDYVNTQGASLFSVTKKQLGAGSIEECAAKCEEDEEFTCRAFQYHSKEQQCVIMAENRKSSIIIRMRDVVLFEKKVYLSECKTGNGKNYRGTMSKTKNGITCQKWSSTSPHRPRFSPATHPSEGLEENYCRNPDNDPQGPWCYTTDPEKRYDYCDILECEEECMHCSGENYDGKISKTMSGLECQAWDSQSPHAHGYIPSKFPNKNLKKNYCRNPDRELRPWCFTTDPNKRWELCDIPRCTTPPPSSGPTYQCLKGTGENYRGNVAVTVSGHTCQHWSAQTPHTHNRTPENFPCKNLDENYCRNPDGKRAPWCHTTNSQVRWEYCKIPSCDSSPVSTEQLAPTAPPELTPVVQDCYHGDGQSYRGTSSTTTTGKKCQSWSSMTPHRHQKTPENYPNAGLTMNYCRNPDADKGPWCFTTDPSVRWEYCNLKKCSGTEASVVAPPPVVLLPDVETPSEEDCMFGNGKGYRGKRATTVTGTPCQDWAAQEPHRHSIFTPETNPRAGLEKNYCRNPDGDVGGPWCYTTNPRKLYDYCDVPQCAAPSFDCGKPQVEPKKCPGRVVGGCVAHPHSWPWQVSLRTRFGMHFCGGTLISPEWVLTAAHCLEKSPRPSSYKVILGAHQEVNLEPHVQEIEVSRLFLEPTRKDIALLKLSSPAVITDKVIPACLPSPNYVVADRTECFITGWGETQGTFGAGLLKEAQLPVIENKVCNRYEFLNGRVQSTELCAGHLAGGTDSCQGDSGGPLVCFEKDKYILQGVTSWGLGCARPNKPGVYVRVSRFVTWIEGVMRNN
[1]
  specific activity (agarose-fibrin plates, chromogenic substrate, clot lysis): 2000-4000 lU/mg
[2]
  specific activity (agarose-fibrin plates, chromogenic substrate, clot lysis): 50000-100000 IU/mg
